What was measured:
FtsA self-interaction [1] = assay: FRET (acceptor photobleaching) self-interaction of FtsA on supported lipid bilayers; type: binding, E. coli
From the text: To directly measure FtsA self-interaction in our fluorescence microscopy experiments, we established a FRET (Förster resonance energy transfer)-based assay using FtsA labelled with either Cy5 (acceptor) or Cy3 (donor). […] We then decided to use this approach to measure the degree of FtsA self-interaction on supported lipid membranes by quantifying the increase in donor fluorescence after photobleaching the acceptor fluorophore[30]–[32] (Fig. 3c–e and Fig. S3d). […] As a negative control, we also attached the Hexahistidine-SUMO-tag (His-SUMO) labelled with Cy5 and Cy3 to membranes with an increasing density of Tris-NTA lipids.
Equimolar concentrations of Cy3- and Cy5-labelled FtsA, supplemented with 20% unlabelled FtsA were used to study FRET and FRAP. Five pre-bleach frames were acquired, followed by acceptor photobleaching of a rectangular ROI with 40% 641 nm laser power and a dwell size of 1 µs/pixel, 75% overlapping lines. The recovery of the signal or the increase in donor intensity were measured with either two frames or one frame per second.
(§1) Bleaching the acceptor dye leads to an increase in the donor intensity, which can be used to quantify the Foerster Resonance energy transfer (FRET)[48]. FRET efficiency was quantified with E%=Ipost/Ipost+Ipre⋅100 , where Ipost is the intensity of the […] and Ipre is the […]. […] To extract the contribution of both processes, we adjusted a routine recently published by Gerganova et al.[33]. In short, the code provides the contribution of both modes of recovery by analysing the shape of the fluorescence recovery profile. […] Contribution of diffusion leads to a change of the slope of the outer borders of the bleached region (S4h right). Thus, by measuring the change of the slope of the border recovery, diffusion and simple on/off binding can be distinguished. We developed “FRAPdiff”, a graphical user interface, which uses the original fit routine by David Rutkowski. It can be used directly on.tiff movies with annotated bleach regions as ImageJ ROIs. In addition, we added optional bleach correction, user selectable projection axis (x or y), and optional mirroring of the recovery profiles, if bleaching was not symmetric. The original fit routine for estimating the recovery and diffusion dynamics can be found at https://github.com/davidmrutkowski/1DReflectingDiffusion. FRAPdiff is available at 10.5281/zenodo.6400639[49] under the GPLv3 open-source license.

[2] = target: the molecule itself; assay: FRET or BRET; acceptor photobleaching; equimolar Cy3- and Cy5-labelled His-tagged protein (total 0.5-1 µM, washed) attached to bilayers with varied Tris-NTA lipid density
[3] = Diffusion coefficient of His-tagged FtsAs and His-SUMO on Tris-NTA membranes (FRAP); conditions: without FtsZ
Description: (§2) To study colocalization of His-tagged variants of FtsA, 0.5–1 µM of Cy5 labelled His-tagged FtsAs were added to the chamber, incubated for 20 min and washed 6x with reaction buffer. […] To control the density of membrane-bound FtsA, SUVs without and with Tris-NTA lipids were mixed to obtain the respective Tris-NTA concentrations. To perform FRET/FRAP experiments, equimolar concentrations of Cy3 and Cy5 labelled His-tagged FtsAs (total 0.5–1 µM) or His-SUMO-Cys were added to a chamber and treated as above. […] FRAP experiments were performed as described before.
as §1

FtsA self-interaction [4] = assay: FRET self-interaction of His-tagged FtsAs (and His-SUMO control) on Tris-NTA membranes; type: binding, E. coli; conditions: without FtsZ
Description: as §2, §1

In the case of `Nc1ncnc2c1ncn2[C@@H]1O[C@H](CO[P@](=O)(O)O[P@](=O)(O)O[P@@](=O)(O)S)[C@@H](O)[C@H]1O` [ATPγS, reference compound], the “effect of replacing ATP with ATPγS on membrane-binding, self-interaction or membrane-binding dynamics” value (FtsA self-interaction [1]) is reported as “no significant effect”.

B1: FtsA WT (1-405)-6xHis (domain or fragment, E. coli, UniProt P0ABH0 1-405, looked up)
chain: MIKATDRKLVVGLEIGTAKVAALVGEVLPDGMVNIIGVGSCPSRGMDKGGVNDLESVVKCVQRAIDQAELMADCQISSVYLALSGKHISCQNEIGMVPISEEEVTQEDVENVVHTAKSVRVRDEHRVLHVIPQEYAIDYQEGIKNPVGLSGVRMQAKVHLITCHNDMAKNIVKAVERCGLKVDQLIFAGLASSYSVLTEDERELGVCVVDIGGGTMDIAVYTGGALRHTKVIPYAGNVVTSDIAYAFGTPPSDAEAIKVRHGCALGSIVGKDESVEVPSVGGRPPRSLQRQTLAEVIEPRYTELLNLVNEEILQLQEKLRQQGVKHHLAAGIVLTGGAAQIEGLAACAQRVFHTQVRIGAPLNITGLTDYAQEPYYSTAVGLLHYGKESHLNGEAEVEKRVTASV
modifications: Cy3 or Cy5 at the N-terminus in the labelled form (sortagging as for native FtsA)
notes: FtsA, E. coli, residues 1-405; plasmid pNB4; Attached to membranes through Tris-NTA lipids by its His tag; also called FtsA-His6; FtsA WT-His6; source: E. coli BL21, purified (as native FtsA); not shown: TwinStrep-SUMO, N-terminal, cleaved; 5xGlycine tag, N-terminal, kept; His6, C-terminal, kept
B1: binds [2].

B2: His6-SUMO (protein, UniProt Q12306 2-98, looked up)
Ubiquitin-like protein SMT3: SDSEVNQEAKPEVKPEVKPETHINLKVSDGSSEIFFKIKKTTPLRRLMEAFAKRQGKEMDSLRFLYDGIRIQADQTPEDLDMEDNDIIEAHREQIGG
modifications: His6 tag
With B2 the “Diffusion Coefficient” value ([3]; 0.1% Tris NTA, replicate Exp1) was 0.47 µm2/s, the “Diffusion Coefficient” value ([3]; 0.1% Tris NTA, replicate Exp2) was 0.69 µm2/s and the “Diffusion Coefficient” value ([3]; 0.4% Tris NTA, replicate Exp1) was 0.55 µm2/s. For the same molecule, the “Diffusion Coefficient” value ([3]; 0.4% Tris NTA, replicate Exp2) was 0.53 µm2/s, the “Diffusion Coefficient” value ([3]; 0.4% Tris NTA, replicate Exp3) was 0.48 µm2/s and the “Diffusion Coefficient” value ([3]; 0.6% Tris NTA, replicate Exp1) was 0.58 µm2/s. For the same molecule, the “Diffusion Coefficient” value ([3]; 0.6% Tris NTA, replicate Exp2) was 0.54 µm2/s, the “Diffusion Coefficient” value ([3]; 0.6% Tris NTA, replicate Exp3) was 0.58 µm2/s and the “Diffusion Coefficient” value ([3]; 0.6% Tris NTA, replicate Exp4) was 0.63 µm2/s. The “Diffusion Coefficient” value ([3]; 0.8% Tris NTA, mean) was 0.52 µm2/s, the “Diffusion Coefficient” value ([3]; 0.8% Tris NTA, replicate Exp1) was 0.56 µm2/s and the “Diffusion Coefficient” value ([3]; 0.8% Tris NTA, replicate Exp2) was 0.53 µm2/s. For the same molecule, the “Diffusion Coefficient” value ([3]; 0.8% Tris NTA, replicate Exp3) was 0.48 µm2/s, the “Diffusion Coefficient” value ([3]; 0.8% Tris NTA, replicate Exp4) was 0.52 µm2/s and the “Diffusion Coefficient” value ([3]; 1% Tris NTA, mean) was 0.57 µm2/s. For the same molecule, the “Diffusion Coefficient” value ([3]; 1% Tris NTA, replicate Exp1) was 0.45 µm2/s, the “Diffusion Coefficient” value ([3]; 1% Tris NTA, replicate Exp2) was 0.57 µm2/s and the “Diffusion Coefficient” value ([3]; 1% Tris NTA, replicate Exp3) was 0.66 µm2/s. The “Diffusion Coefficient” value ([3]; 1% Tris NTA, replicate Exp4) was 0.60 µm2/s, the “Diffusion Coefficient” value ([3]; 1% Tris NTA, replicate Exp5) was 0.57 µm2/s and the “Diffusion Coefficient” value ([3]; 1% Tris NTA, replicate Exp6) was 0.68 µm2/s. The “Diffusion Coefficient” value ([3]; 1% Tris NTA, replicate Exp7) was 0.62 µm2/s, the “Diffusion Coefficient” value ([3]; 1% Tris NTA, replicate Exp8) was 0.43 µm2/s and the Diffusion Coefficient ([3]; Tris 0.10 %) was 0.58 µm2/s. It also gave a Diffusion Coefficient ([3]; Tris 0.40 %) of 0.52 µm2/s, a Diffusion Coefficient ([3]; Tris 0.60 %) of 0.58 µm2/s and a Diffusion Coefficient ([3]; Tris 0.80 %) of 0.52 µm2/s. It also gave a Diffusion Coefficient ([3]; Tris 1.00 %) of 0.57 µm2/s, a Diffusion Coefficient ([3]; Tris 2.00 %) of 0.58 µm2/s and a Diffusion Coefficient ([3]; Tris […]) of 0.56 µm2/s. For the same molecule, the “Diffusion Coefficient” value ([3]; […] Tris NTA, mean (n: WT 2, R286W 3, SUMO 3)) was 0.56 µm2/s, the “Diffusion Coefficient” value ([3]; […] Tris NTA, replicate Exp1) was 0.47 µm2/s and the “Diffusion Coefficient” value ([3]; […] Tris NTA, replicate Exp2) was 0.67 µm2/s. The “Diffusion Coefficient” value ([3]; […] Tris NTA, replicate Exp3) was 0.53 µm2/s, the FRET efficiency (FtsA self-interaction [4]; 0.1% Tris NTA, Exp1) was 1.02% and the FRET efficiency (FtsA self-interaction [4]; 0.1% Tris NTA, Exp2) was 1.41%. The FRET efficiency (FtsA self-interaction [4]; 0.1% Tris NTA, mean, n = 2) was 1.21%, the FRET efficiency (FtsA self-interaction [4]; 0.4% Tris NTA, Exp1) was 1.31% and the FRET efficiency (FtsA self-interaction [4]; 0.4% Tris NTA, Exp2) was 1.55%. The FRET efficiency (FtsA self-interaction [4]; 0.4% Tris NTA, Mean, n = 2) was 1.43%, the FRET efficiency (FtsA self-interaction [4]; 0.6% Tris NTA, Exp1) was 0.86% and the FRET efficiency (FtsA self-interaction [4]; 0.6% Tris NTA, Exp2) was 0.95%. The FRET efficiency (FtsA self-interaction [4]; 0.6% Tris NTA, Mean, n = 3 (His6-SUMO n = 2)) was 0.91%, the FRET efficiency (FtsA self-interaction [4]; 0.8% Tris NTA, Exp1) was 0.27% and the FRET efficiency (FtsA self-interaction [4]; 0.8% Tris NTA, Exp2) was 0.30%. It also gave an FRET efficiency (FtsA self-interaction [4]; 0.8% Tris NTA, Mean, n = 3 (His6-SUMO n = 2)) of 0.29%, an FRET efficiency (FtsA self-interaction [4]; 1% Tris NTA, Exp1) of 0.57% and an FRET efficiency (FtsA self-interaction [4]; 1% Tris NTA, Exp2) of 0.59%. The FRET efficiency (FtsA self-interaction [4]; 1% Tris NTA, Exp3) was 0.56%, the FRET efficiency (FtsA self-interaction [4]; 1% Tris NTA, Mean, n = 3 (R286W-His6 n = 4)) was 0.57% and the FRET efficiency (FtsA self-interaction [4]; 2% Tris NTA, Exp1) was 0.56%. For the same molecule, the FRET efficiency (FtsA self-interaction [4]; 2% Tris NTA, Exp2) was 0.41%, the FRET efficiency (FtsA self-interaction [4]; 2% Tris NTA, Mean, n = 2) was 0.49% and the FRET efficiency (FtsA self-interaction [4]; Tris 0.40 %, mean) was 1.43%. It also gave an FRET efficiency (FtsA self-interaction [4]; Tris 0.60 %, mean) of 0.91%, an FRET efficiency (FtsA self-interaction [4]; Tris 0.80 %, mean) of 0.28% and an FRET efficiency (FtsA self-interaction [4]; Tris 1.00 %, mean) of 0.57%. The FRET efficiency (FtsA self-interaction [4]; Tris 2.00 %, mean) was 0.49%, the FRET efficiency (FtsA self-interaction [4]; […] Tris NTA, Exp1) was 1.47% and the FRET efficiency (FtsA self-interaction [4]; […] Tris NTA, Exp2) was 1.00%. For the same molecule, the FRET efficiency (FtsA self-interaction [4]; […] Tris NTA, mean, n = 2) was 1.23%.

From article PMC9098913, “In vitro reconstitution of Escherichia coli divisome activation” (Nature Communications, 2022)
